Reference: patent US20020110883

Biological target: microtubules

B1: Kip3A 353 protein (protein)
chain: MAVEDSTLQVVVRVRPPTPRELDSQRRPVVQVVDERVLVFNPEEPDGGFPGLKWGGTHDGPKKKGKDLTFVFDRVFGEAATQQDVFQHTTHSVLDSFLQGYNCSVFAYGATGAGKTHTMLGREGDPGIMYLTTVELYRRLEARQQEKHFEVLISYQEVYNEQIHDLLEPKGPLAIREDPDKGVVVQGLSFHQPASAEQLLEILTRGNRNRTQHPTDANATSSRSHAIFQIFVKQQDRVPGLTQAVQVAKMSLIDLAGSERASSTHAKGERLREGANINRSLLALINVLNALADAKGRKTHVPYRDSKLTRLLKDSLGGNCRTVMIAAISPSSLTYEDTYNTLKYADRAKEIRLKGNSKLEGKPIPNPLLGLDSTRTGHHHHHH
  Km for microtubule stimulation (coupled PK/LDH ATPase assay, Michaelis-Menten fit): Km for microtubule stimulation of 4.6 ug/ml
  Vmax of microtubule-stimulated ATPase (coupled PK/LDH ATPase assay, Michaelis-Menten fit): Vmax 0.85 uM ADP/s
  kcat of microtubule-stimulated ATPase (from Vmax): corresponds to a kcat value of 15s^-
